Key:
[1] = target: GFP-CYRI-mito, WT (Dictyostelium CYRI targeted to mitochondria) (D. discoideum); experiment: mitochondrial co-recruitment
[2] = target: Rac1A P29S/Q61L-mCherry-mito (targeted to mitochondria) (D. discoideum) (UniProt P34144); experiment: mitochondrial co-recruitment

Pearson's coefficient of correlation for co-localisation at the mitochondria [1] | Pearson's coefficient of correlation for co-localisation at the mitochondria [2] | Substance
0.44 |  | Rac1A P29S/Q61L-mCherry (from UniProt P34144 1-194) (natural protein)
 | 0.77 | Dictyostelium CYRI WT, GFP fusion (natural protein)

Source: paper PMC6863750
